Tests used:
[1] = target: T1, recombinant biotinylated human CD71 extracellular domain (human, UniProt P02786 89-760, biotinylated); experiment: solution ELISA
T1 construct: extracellular domain; also called hCD71; huCD71 ECD

CD71 apical domain [2] = target: T2, CD71 apical domain (UniProt P02786 189-383, limits assumed); experiment: solution ELISA
T2 construct: domain: Apical domain

[3] = target: T1, recombinant biotinylated human CD71 …; experiment: solution ELISA, signal ratio to HSA
CD71 apical domain [4] = target: T2, CD71 apical domain; experiment: solution ELISA, signal ratio to HSA

T1 sequence (P02786 other isoform, or with tags, fused parts or gaps): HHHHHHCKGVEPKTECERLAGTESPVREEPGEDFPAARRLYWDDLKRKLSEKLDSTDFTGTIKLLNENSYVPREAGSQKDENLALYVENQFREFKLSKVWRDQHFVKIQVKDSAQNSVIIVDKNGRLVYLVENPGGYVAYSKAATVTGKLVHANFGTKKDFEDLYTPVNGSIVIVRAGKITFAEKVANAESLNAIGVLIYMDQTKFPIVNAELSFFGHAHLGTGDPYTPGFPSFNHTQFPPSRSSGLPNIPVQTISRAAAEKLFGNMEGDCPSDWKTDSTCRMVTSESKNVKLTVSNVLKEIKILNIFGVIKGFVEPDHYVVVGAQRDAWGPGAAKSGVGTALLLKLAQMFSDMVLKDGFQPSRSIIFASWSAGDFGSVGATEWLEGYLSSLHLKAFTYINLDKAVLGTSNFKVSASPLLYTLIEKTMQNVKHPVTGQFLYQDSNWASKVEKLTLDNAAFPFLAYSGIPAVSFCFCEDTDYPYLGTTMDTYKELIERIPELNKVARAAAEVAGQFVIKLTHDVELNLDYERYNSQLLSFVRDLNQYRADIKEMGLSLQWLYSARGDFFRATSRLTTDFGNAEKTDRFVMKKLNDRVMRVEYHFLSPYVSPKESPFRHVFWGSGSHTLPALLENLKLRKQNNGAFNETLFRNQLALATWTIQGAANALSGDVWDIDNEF
T2 sequence (P02786 189-383 limits assumed): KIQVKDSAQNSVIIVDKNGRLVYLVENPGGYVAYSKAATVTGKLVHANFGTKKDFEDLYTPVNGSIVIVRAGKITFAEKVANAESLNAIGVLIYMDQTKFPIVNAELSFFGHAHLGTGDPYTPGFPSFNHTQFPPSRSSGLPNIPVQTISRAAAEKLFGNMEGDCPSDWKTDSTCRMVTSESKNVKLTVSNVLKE

Row | hCD71, RLU [1] | Apical domain, RLU (CD71 apical domain [2]) | hCD71:HSA [3] | apical domain:HSA (CD71 apical domain [4]) | Binder
1 | 1.61e+06 RLU | 106000 RLU | 13.2 | 0.9 | SEQ ID NO 130 (designed binder, FN3 domain) MLPAPKNLVVSRVTEDSARLSWTAPDAAFDSFVIEYFEWTLNGEAIVLTVPGSERSYDLTGLKPGTEYSVQIYGVKGGCLSRPLSAIFTT
2 | 1.36e+06 RLU | 5.99e+06 RLU | 21.8 | 95.8 | SEQ ID NO 107 (designed binder, FN3 domain) MSLPAPKNLVVSRVTEDSARLSWTAPDAAFDSFYIAYAEPRPDGEAISLYVPGSERSYDLTGLKPGTEYSVLIHGVKGGLLSSPLSAISTT
3 | 1.77e+06 RLU | 7.58e+06 RLU | 79.9 | 342 | SEQ ID NO 192 (designed binder, FN3 domain) MLPAPKNLVVSRVTEDSARLSWTAPDAAFDSFDIGYTEYGGYGEAIYLSVPGSERSYDLTGLKPGTEYWVLIQGVKGGGSSVPLSAIFTT
4 | 638000 RLU | 93100 RLU | 17 | 2.5 | SEQ ID NO 162 (designed binder, FN3 domain) MLPAPKNLVVSRVTEDSARLSWTAPDAAFDSFYIAYAEPRPDGEAIKLEVPGSERSYDLTGLKPGTEYSVLIHGVKGGLLSSPLAIFTT
5 | 1.9e+06 RLU | 4.83e+06 RLU | 61.7 | 157 | SEQ ID NO 174 (designed binder, FN3 domain) MLPAPKNLVVSRVTEDSARLSWTAPDAAFDSFFIGYLEPQPPGEAIQLWVPGSERSYDLTGLKPGTEYNVTIQGVKGGFPSMPLSAIFTT
6 | 2.6e+06 RLU | 6.22e+06 RLU | 121 | 289 | SEQ ID NO 114 (designed binder, FN3 domain) MLPAPKNLVVSRVTEDSARLSWTTPDAAFDSFFIGYLEPQPPGEAISLQVPGSERSYDLTGLKPGTEYNVTIQGVKGGFPSSPLFAVFTT
7 | 313000 RLU | 74500 RLU | 11.5 | 2.7 | SEQ ID NO 163 (designed binder, FN3 domain) MLPAPKNLVVSRVTEDSARLSWTAPDAAFDSFFIGYLEPQPPGEAIYLEVPGSERSYDLTGLKPGTEYNVTIQGVKGGFPSFPLKAAFTT
8 | 1.23e+06 RLU | 4.04e+06 RLU | 45.2 | 149 | SEQ ID NO 151 (designed binder, FN3 domain) MLPAPKNLVVSRVTEDSARLSWTAPDAAFDSFFIGYLEPQPPGEAIQLWVPGSERSYDLTGLKPGTEYNVTIQGVKGGFPSRPLQAHFTT
9 | 1.49e+06 RLU | 1.8e+06 RLU | 66.5 | 80.4 | SEQ ID NO 173 (designed binder, FN3 domain) MLPAPKNLVVSRVTEDSARLSWTAPDAAFDSFHIVYHEPRPSGEAIHLQVPGSERSYDLTGLKPGTEYNVTIQGVKGGFPSYPLSAFFTT
10 | 4.77e+06 RLU | 6.18e+06 RLU | 269 | 348 | SEQ ID NO 121 (designed binder, FN3 domain) MLPAPKNLVVSRVTEDSARLSWTAPDAAFDSFFIGYLEPQPPGEAIALWVPGSERSYDLTGLKPGTEYNVTIQGVKGGFPSMPLSAIFTT
11 | 932000 RLU | 2.44e+06 RLU | 69.6 | 182 | SEQ ID NO 108 (designed binder, FN3 domain) MLPAPKNLVVSRVTEDSARLSWTAPDAAFDSFFIGYLEPQPPGEAIQLRVPGSERSYDLTGLKPGTEYNVTIQGVKGGFPSMPLSAIFTT
12 | 1.25e+06 RLU | 4.78e+06 RLU | 42.7 | 163 | SEQ ID NO 123 (designed binder, FN3 domain) MLPAPKNLVVSRVTEDSARLSWTAPDAAFDSFFIGYLEPQPPGEAIQLWVPGSERSYDLTGLKPGTEYNVTIQGVKGGFPSHPLGAVFTT
13 | 3.69e+06 RLU | 4.77e+06 RLU | 155 | 201 | SEQ ID NO 136 (designed binder, FN3 domain) MLPAPKNLVVSRVTEDSARLSWTAPDAAFDSFFIGYLEPQPPGEAIWLHVPGSERSYDLTGLKPGTEYNVTIQGVKGGFPSIPLIAIFTT
14 | 3.86e+06 RLU | 4.66e+06 RLU | 119 | 143 | SEQ ID NO 191 (designed binder, FN3 domain) MLPAPKNLVVSRVTEDSARLSWTAPDAAFDSFFIGYLEPQPPGEAIILAVPGSERSYDLTGLKPGTEYNVTIQGVKGGFPSLPLVASFTT
15 | 636000 RLU | 803000 RLU | 60 | 75.8 | SEQ ID NO 110 (designed binder, FN3 domain) MLPAPKNLVVSRVTEDSARLSWTAPDAAFDSFFIGYLEPQPPGEAIYLTVPGSERSYDLTGLKPGTEYNVTIQGVKGGFPSYPLDASFTT
16 | 603000 RLU | 317000 RLU | 27.9 | 14.6 | SEQ ID NO 140 (designed binder, FN3 domain) MLPAPKNLVVSRVTEDSARLSWTAPDAAFDSFFIGYLEPQPPGEAIQLEVPGSERSYDLTGLKPGTEYNVTIQGVKGGFPSMPLSAIFTT
17 | 2.97e+06 RLU | 4.36e+06 RLU | 123 | 181 | SEQ ID NO 142 (designed binder, FN3 domain) MLPAPKNLVVSRVTEDSARLSWTAPDAAFDSFFIGYLEPQPPGEAIGLQVPGSERSYDLTGLKPGTEYNVTIQGVKGGFPSHPLKAQFTT
18 | 1.13e+06 RLU | 1.86e+06 RLU | 73.8 | 121 | SEQ ID NO 139 (designed binder, FN3 domain) MLPAPKNLVVSRVTEDSARLSWTAPDAAFDSFFIGYLEPQPPGEAIQLGVPGSERSYDLTGLKPGTEYNVTIQGVKGGFPSHPLNANFTT
19 | 2.74e+06 RLU | 4.42e+06 RLU | 85 | 137 | SEQ ID NO 126 (designed binder, FN3 domain) MLPAPKNLVVSRVTEDSARLSWTAPDAAFDSFFIGYLEPQPPGEAIHLHVPGSERSYDLTGLKPGTEYNVTIQGVKGGFPSIPLHANFTT
20 | 5.33e+06 RLU | 28300 RLU | 138 | 0.7 | SEQ ID NO 109 (designed binder, FN3 domain) MLPAPKNLVVSRVTEDSARLSWTAPDAAFDSFHISYEEDYTFGEAIYLRVPGSERSYDLTGLKPGTEYRVVIGGVKGGWFSEPLLAAFTT
21 | 416000 RLU | 5.56e+06 RLU | 24.3 | 324 | SEQ ID NO 199 (designed binder, FN3 domain) MLPAPKNLVVSRVTEDSARLSWTAPDAAFDSFYIAYAEPRPDGEAIHLWVPGSERSYDLTGLKPGTEYSVLIHGVKGGLLSSPLHADFTT
22 | 3.25e+06 RLU | 7.5e+06 RLU | 14 | 32.2 | SEQ ID NO 201 (designed binder, FN3 domain) MLPAPKNLVVSRVTEDSARLSWTAPDAAFDSFYIAYAEPRPDGEAISLWVPGSERSYDLTGLKPGTEYSVLIHGVKGGLLSSPLLAHFTT
23 | 930000 RLU | 6.1e+06 RLU | 51.6 | 339 | SEQ ID NO 200 (designed binder, FN3 domain) MLPAPKNLVVSRVTEDSARLSWTAPDAAFDSFYIAYAEPRPDGEAIWLEVPGSERSYDLTGLKPGTEYSVLIHGVKGGLLSSPLVADFTT
24 | 3.47e+06 RLU | 150000 RLU | 20.1 | 0.9 | SEQ ID NO 115 (designed binder, FN3 domain) MLPAPKNLVVSRVTEDSARLSWTAPDAAFDSFYIAYAEPRPDGEAIELHVPGSERSYDLTGLKPGTEYSVLIHGVKGGLLSSPLFTT
25 | 1.51e+06 RLU | 5.47e+06 RLU | 58.6 | 212 | SEQ ID NO 202 (designed binder, FN3 domain) MLPAPKNLVVSRVTEDSARLSWTAPDAAFDSFDIGYTEYGGYGEAILHVPGSERSYDLTGLKPGTEYWVLIQGVKGGGSSVPLSAIFTT
26 | 4.04e+06 RLU | 120000 RLU | 27.9 | 0.8 | SEQ ID NO 184 (designed binder, FN3 domain) MLPAPKNLVVSRVTEDSARLSWTAPDAAFDSFFIGYLEPQPPGEAIDLAVPGSERSYDLTGLKPGTEYSVLIHGVKGGLLSSPLSFTT
27 | 796000 RLU | 77900 RLU | 10.9 | 1.1 | SEQ ID NO 187 (designed binder, FN3 domain) MLPAPKNLVVSRVTEDSARLSWTAPDAAFDSFFIGYLEPQPPGEAISLLVPDSERSYDLTGLKPGTEYNVTIQGVKGGFPSMPLKFTT
28 | 377000 RLU | 353000 RLU | 13.4 | 12.5 | SEQ ID NO 172 (designed binder, FN3 domain) MLPAPKNLVVSRVTEDSARLSWTAPDAAFDSFFIGYLEPQPPGEAIVLTVPGSERSYDLTGLKPGTEYNVTIQGVKGGFPSMPLASFTT
29 | 2.41e+06 RLU | 113000 RLU | 17.9 | 0.8 | SEQ ID NO 111 (designed binder, FN3 domain) MLPAPKNLVVSRVTEDSARLSWTAPDAAFDSFFIGYLEPQPPGEAIDLGVPGSERSYDLTGLKPGTEYNVTIQGVKGGFPSMPLDPLEAYFTT

From patent publication US20220332795A1 (ARO BIOTHERAPEUTICS, published 2022)
